Test results taken from patent publication US20260250318A1, “COMPOSITIONS AND METHODS FOR CROSSING THE BLOOD BRAIN BARRIER” (VOYAGER THERAPEUTICS, INC., priority 2022, published 2026).

Key:
[1] = test system: N-linked galactose on HeLa cells; assay: Transduction of HeLa cells after neuraminidase treatment (Luc2 activity); format: cell-based, human
Method: Primary glycan receptors have been identified for various AAV serotypes, including AAV9 which binds N-linked galactose. In order to investigate the ability of TTM-001 and TTM-002 AAV9 variants to retain this natural glycan binding, HeLa cells were treated with increasing concentrations of Neuraminidase ([…]), which cleaves N-sialic acid and exposes N-galactose. The treated cells were then transduced with AAV particles comprising the TTM-001 capsid variant (AAV_TTM-001), the TTM-002 capsid variant (AAV_TTM-002), or an AAV9 control (AAV_AAV9cntl), transduction was measured by quantification of Luc2 activity (RLU), and data was normalized relative to the no neuraminidase control.

brain [2] = assay: NGS fold enrichment of synthetic library (passage 3) in BALB/c mice, first cross-species screen; format: in vivo; conditions: synthetic library passage 3, intravenous, RNA NGS, brain of BALB/c mice, relative to wild-type AAV9
Outline: (§1)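 Passage-3 synthetic capsid library given intravenously […] to NHPs (2-4 years) and BALB/c or C57Bl/6 mice (n=3, 6-8 weeks). After e.g. 28 days, tissue RNA was RT-PCR amplified and NGS-sequenced; values are fold enrichment of each variant relative to wild-type AAV9.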

brain [3] = assay: Second cross-species screen, synthetic library passage 3 in BALB/c mice; format: in vivo; conditions: for Fold enrichment over AAV9 in BALB/c: third passage (P3)
Method: There were approximately 500 variants in this synthetic library. This synthetic library was then injected back into both strains of mice (C57Bl/6 and BALB/c; passage 3). RNA was recovered from the mouse brains, RT-PCR amplification was performed, and fold-enrichment relative to wild-type AAV9 was calculated by NGS analysis, which is provided in Table 11.

brain [4] = assay: Second cross-species screen, passage 2 in BALB/c mice after first passage in NHPs; format: in vivo
Method: (§2) A second cross-species evolution screen was performed using an AAV capsid variant library with a modification in loop IV introduced as described above and passaging it once through NHPs (passage 1) and then subsequently injected it into two different strains of mice (passage 2), C57Bl/6 and BALB/c. The fold-enrichment for each variant in the brain of each mouse species was calculated by systematic NGS enrichment analysis following RNA recovery and RT-PCR amplification. The fold enrichment values in the second passage in mice were compared to those fold enrichment values from the second pass that was performed in NHPs as described above. […] Further, 10 of these 12 variants comprised the SPH motif and a positive residue in one of the next three subsequent residues (Table 10).

[5] = test system: brain, spinal cord, and DRG of the NHPs; assay: NGS fold enrichment of synthetic library (passage 3) in NHPs, first cross-species screen; format: in vivo, cynomolgus macaques (Macaca fascicularis); conditions: for fold enrichment in the DRG of NHPs relative to AAV9 / fold enrichment in the brain of NHPs relative to AAV9 / fold enrichment in the spinal cord of NHPs relative to AAV9: passage 3, intravenous; for Fold enrichment over AAV9 in the brain of NHPs / Fold enrichment over AAV9 in the spinal cord of NHPs: synthetic library passage 3, intravenous, RNA NGS, relative to wild-type AAV9
Outline: as §1

brain [6] = assay: Second cross-species screen, passage 2 in C57Bl/6 mice after first passage in NHPs; format: in vivo; conditions: P2 in C57Bl/6 after first passage in NHPs
Method: as §2

[7] = molecular target: T1, isoform 2 (alkaline phosphatase, placental (ALPP)) (Homo sapiens, UniProt P05187); assay: Transduction assay in HEK 293T cells expressing isoform 2; format: cell-based; conditions: for Luciferase Activity (RLU): Table 30, Isoform 2 transfected cells; for increase in transduction in cells expressing isoform 2: luciferase activity (RLU)
T1 construct: expressed in transfected cells; host or cells: HEK 293T
Source text: Three isoforms of ALPL exist, isoform 1 (Alkaline phosphatase, placental-like 2 (ALPPL2), NM_031313, which is incorporated by reference herein), isoform 2 (alkaline phosphatase, placental (ALPP), NM_001632, which is incorporated by reference herein), and isoform 3 (alkaline phosphatase, intestinal (ALPLI), NM_001631, which is incorporated by reference herein), that can also be expressed on cell surfaces via a GPI-anchor. Isoform 1 is 56.25% identical and 72.54% similar (gaps: 4.17%) to ALPL, isoform 2 is 54.96% identical and 71.37% similar (gaps: 2.29%) to ALPL, and isoform 3 is 55.98% identical and 72.11% similar (gaps: 3.04%) to ALPL. The transduction assay described above was repeated with the three isoforms. HEK 293T cells were transfected via calcium phosphate transfection with a plasmid expressing ALPL, isoform 1 of ALPL, isoform 2 of ALPL, isoform 3 of ALPL, an AAVR positive control, or a pCMV6 negative control. […] At 24-hours post-transduction, luciferase activity (RLU) was measured to quantify AAV cellular transduction.

brain [8] = assay: NGS fold enrichment of AAV capsid variant library, second passage in NHPs; format: in vivo, NHP; conditions: second passage (P2) in NHPs
Source text: A TRACER based method as described in WO2020072683, WO 2021/202651, and WO2021230987, the contents of which are herein incorporated by reference in their entirety, was used to generate the AAV capsid variants described herein. An orthogonal evolution approach was combined with a high throughput screening by NGS. Briefly, the library of AAV capsid variants was generated using a sliding window approach, where 6 amino acid sequences were inserted into 8 different positions across loop IV of AAV9, including immediately subsequent to positions 453, 454, 455, 456, 457, 458, 459, and 460, relative to a reference sequence numbered according to SEQ ID NO: 138. The initial library was passed twice through non-human primates (NHP, 2-4 years of age). After the second passage (e.g., 28 days post injection into two NHPs), RNA was extracted from six brain regions. […]
A second cross-species evolution screen was performed using an AAV capsid variant library with a modification in loop IV introduced as described above and passaging it once through NHPs (passage 1) and then subsequently injected it into two different strains of mice (passage 2), C57Bl/6 and BALB/c. The fold-enrichment for each variant in the brain of each mouse species was calculated by systematic NGS enrichment analysis following RNA recovery and RT-PCR amplification. […]

[9] = P3, average of BALB/c and C57Bl/6

T1 sequence (P05187 23-506): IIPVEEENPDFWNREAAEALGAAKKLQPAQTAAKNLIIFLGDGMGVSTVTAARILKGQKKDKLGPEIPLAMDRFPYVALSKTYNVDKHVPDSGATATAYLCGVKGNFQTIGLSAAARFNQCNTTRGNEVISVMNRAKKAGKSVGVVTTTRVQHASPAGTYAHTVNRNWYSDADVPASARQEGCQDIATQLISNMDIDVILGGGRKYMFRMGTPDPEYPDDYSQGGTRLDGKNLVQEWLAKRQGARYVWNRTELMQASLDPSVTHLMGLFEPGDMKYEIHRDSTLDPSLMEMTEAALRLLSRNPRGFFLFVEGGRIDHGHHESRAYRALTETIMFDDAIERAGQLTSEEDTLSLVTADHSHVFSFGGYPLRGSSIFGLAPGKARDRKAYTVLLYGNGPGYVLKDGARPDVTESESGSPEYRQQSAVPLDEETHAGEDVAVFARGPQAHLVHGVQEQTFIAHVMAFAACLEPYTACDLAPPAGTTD

| Molecule | fold change in Luc2 activity (RLU) relative to the no neuraminidase control ([1]; Neuraminidase 5 mU/mL) [fold] | fold change in Luc2 activity (RLU) relative to the no neuraminidase control ([1]; Neuraminidase 50 mU/mL) [fold] | fold change in Luc2 activity (RLU) relative to the no neuraminidase control ([1]; Neuraminidase 500 mU/mL) [fold] | Fold enrichment over AAV9 in the brain of Mice (BALB/c) (brain [2]) [fold] | Average fold enrichment over AAV9 (brain [3]; [9]) [fold] | Average fold enrichment over AAV9 (brain [3]; P3, average of BALB/c and C57Bl/6, listed as GSGSPHSKAQNQQT) [fold] | Fold enrichment over AAV9 in BALB/c (brain [3]) [fold] | Fold enrichment over AAV9 in BALB/c P2 (brain [4]) [fold] | fold enrichment in the DRG of NHPs relative to AAV9 [5] [fold] | fold enrichment in the brain of NHPs relative to AAV9 [5] [fold] | fold enrichment in the brain of NHPs relative to AAV9 ([5]; listed as GSGSPHSKAQNQQT) [fold] | fold enrichment in the spinal cord of NHPs relative to AAV9 [5] [fold] | Fold enrichment over AAV9 in the brain of NHPs [5] [fold] | Fold enrichment over AAV9 in the spinal cord of NHPs [5] [fold] | Fold enrichment over AAV9 in C57Bl/6 P2 (brain [6]) [fold] | Luciferase Activity (RLU) [7] | increase in transduction in cells expressing isoform 2 [7] | Fold enrichment over AAV9 in NHPP2 (brain [8]) [fold] | Average fold enrichment over AAV9 (brain [3]; P3, average of BALB/c and C57Bl/6, listed as GHDSPHKSGQNQQT) [fold] |
| --- | --- | --- | --- | --- | --- | --- | --- | --- | --- | --- | --- | --- | --- | --- | --- | --- | --- | --- | --- |
| AAV9: wild-type AAV9 control capsid [reference compound] | 2.7 | 6.2 | 11.1 | – | – | – | – | – | – | – | – | – | – | – | – | – | – | – | – |
| TTM-001: AAV9 capsid variant comprising SPHSKA (SEQ ID NO: 941) in loop IV (protein) chain 1: MAADGYLPDWLEDNLSEGIREWWALKPGAPQPKANQQHQDNARGLVLPGYKYLGPGNGLDKGEPVNAADAAALEHDKAYDQQLKAGDNPYLKYNHADAEFQERLKEDTSFGGNLGRAVFQAKKRLLEPLGLVEEAAKTAPGKKRPVEQSPQEPDSSAGIGKSGAQPAKKRLNFGQTGDTESVPDPQPIGEPPAAPSGVGSLTMASGGGAPVADNNEGADGVGSSSGNWHCDSQWLGDRVITTSTRTWALPTYNNHLYKQISNSTSGGSSNDNAYFGYSTPWGYFDFNRFHCHFSPRDWQRLINNNWGFRPKRLNFKLFNIQVKEVTDNNGVKTIANNLTSTVQVFTDSDYQLPYVLGSAHEGCLPPFPADVFMIPQYGYLTLNDGSQAVGRSSFYCLEYFPSQMLRTGNNFQFSYEFENVPFHSSYAHSQSLDRLMNPLIDQYLYYLSKTINGSGSPHSKAQNQQTLKFSVAGPSNMAVQGRNYIPGPSYRQQRVSTTVTQNNNSEFAWPGASSWALNGRNSLMNPGPAMASHKEGEDRFFPLSGSLIFGKQGTGRDNVDADKVMITNEEEIKTTNPVATESYGQVATNHQSAQAQAQTGWVQNQGILPGMVWQDRDVYLQGPIWAKIPHTDGNFHPSPLMGGFGMKHPPPQILIKNTPVPADPPTAFNKDKLNSFITQYSTGQVSVEIEWELQKENSKRWNPEIQYTSNYYKSNNVEFAVNTEGVYSEPRPIGTRYLTRNL chain 2: GSGSPHSKAQNQQT | 5.2 | 6.7 | 8.2 | 41.304 | 63.1 | 63.083 | 60.312 | 44.58 | 0.4 | 73.6 | 76.6 | 29.4 | 73.615 | 29.402 | 14.48 | 7,456 RLU | did not occur | 56.33 | – |
| TTM-002: AAV9 capsid variant comprising HDSPHK (SEQ ID NO: 2) in loop IV (protein) chain 1: MAADGYLPDWLEDNLSEGIREWWALKPGAPQPKANQQHQDNARGLVLPGYKYLGPGNGLDKGEPVNAADAAALEHDKAYDQQLKAGDNPYLKYNHADAEFQERLKEDTSFGGNLGRAVFQAKKRLLEPLGLVEEAAKTAPGKKRPVEQSPQEPDSSAGIGKSGAQPAKKRLNFGQTGDTESVPDPQPIGEPPAAPSGVGSLTMASGGGAPVADNNEGADGVGSSSGNWHCDSQWLGDRVITTSTRTWALPTYNNHLYKQISNSTSGGSSNDNAYFGYSTPWGYFDFNRFHCHFSPRDWQRLINNNWGFRPKRLNFKLFNIQVKEVTDNNGVKTIANNLTSTVQVFTDSDYQLPYVLGSAHEGCLPPFPADVFMIPQYGYLTLNDGSQAVGRSSFYCLEYFPSQMLRTGNNFQFSYEFENVPFHSSYAHSQSLDRLMNPLIDQYLYYLSKTINGHDSPHKSGQNQQTLKFSVAGPSNMAVQGRNYIPGPSYRQQRVSTTVTQNNNSEFAWPGASSWALNGRNSLMNPGPAMASHKEGEDRFFPLSGSLIFGKQGTGRDNVDADKVMITNEEEIKTTNPVATESYGQVATNHQSAQAQAQTGWVQNQGILPGMVWQDRDVYLQGPIWAKIPHTDGNFHPSPLMGGFGMKHPPPQILIKNTPVPADPPTAFNKDKLNSFITQYSTGQVSVEIEWELQKENSKRWNPEIQYTSNYYKSNNVEFAVNTEGVYSEPRPIGTRYLTRNL chain 2: GHDSPHKSGQNQQT | 9.6 | 12.5 | 13.9 | 49.760 | 66.8 | – | 82.460 | 59.14 | 0.0 | 62.6 | – | 15.6 | 62.612 | 15.641 | 27.15 | 3,465 RLU | did not occur | 33.96 | 66.792 |
